These results are taken from patent publication US20210033615.

The series addresses T1, F-box protein 28 (FBXO28).
T1 chain: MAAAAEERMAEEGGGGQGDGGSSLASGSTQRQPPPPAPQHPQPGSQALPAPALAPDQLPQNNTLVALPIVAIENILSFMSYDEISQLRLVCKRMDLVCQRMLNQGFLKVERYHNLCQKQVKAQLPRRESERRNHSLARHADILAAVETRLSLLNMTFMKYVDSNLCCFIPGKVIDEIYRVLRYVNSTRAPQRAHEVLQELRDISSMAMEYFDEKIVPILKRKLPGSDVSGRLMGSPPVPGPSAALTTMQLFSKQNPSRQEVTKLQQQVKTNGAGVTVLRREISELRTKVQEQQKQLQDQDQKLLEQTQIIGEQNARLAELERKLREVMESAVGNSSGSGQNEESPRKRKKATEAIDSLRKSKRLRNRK

B1: 6-phosphofructo-2-kinase/fructose-2,6-biphosphatase 4 (PFKFB4) (protein)
chain: MASPRELTQNPLKKIWMPYSNGRPALHACQRGVCMTNCPTLIVMVGLPARGKTYISKKLTRYLNWIGVPTREFNVGQYRRDVVKTYKSFEFFLPDNEEGLKIRKQCALAALRDVRRFLSEEGGHVAVFDATNTTRERRATIFNFGEQNGYKTFFVESICVDPEVIAANIVQVKLGSPDYVNRDSDEATEDFMRRIECYENSYESLDEDLDRDLSYIKIMDVGQSYVVNRVADHIQSRIVYYLMNIHVTPRSIYLCRHGESELNLKGRIGGDPGLSPRGREFAKSLAQFISDQNIKDLKVWTSQMKRTIQTAEALGVPYEQWKVLNEIDAGVCEEMTYEEIQDNYPLEFALRDQDKYRYRYPKGESYEDLVQRLEPVIMELERQENVLVICHQAVMRCLLAYFLDKAAEQLPYLKCPLHTVLKLTPVAYGCKVESIFLNVAAVNTHRDRPQNVDISRPPEEALVTVPAHQ
Regarding B1, the “HIF1a protein level (Western blot) after knockdown in GSCs” value is “silencing of both FBXO28 and PFKFB4 in the GSCs rescued the level of HIF1a”; the “ubiquitylation of HIF1a (ubiquitin immunoblot on immunoprecipitated HIF1a upon MG132 treatment)” value is “the ubiquitylation of HIF1a is decreased in cells overexpressing PFKFB4”.
